{"source": "paper PMC2820462", "about": "“Inhibition of receptor tyrosine kinase signalling by small molecule agonist of T-cell protein tyrosine phosphatase” (BMC Cancer, 2010)", "binders": {"B1": {"name": "α1-cyt peptide (α1 cytoplasmic specific sequence lacking the conserved domain, RPLKKKMEK) (peptide)", "peptide": "RPLKKKMEK"}}, "biological_target": "T1, T-cell protein tyrosine phosphatase, 45 kDa form (TC45) (UniProt P17706-2 1-387)", "T1 sequence (looked up)": "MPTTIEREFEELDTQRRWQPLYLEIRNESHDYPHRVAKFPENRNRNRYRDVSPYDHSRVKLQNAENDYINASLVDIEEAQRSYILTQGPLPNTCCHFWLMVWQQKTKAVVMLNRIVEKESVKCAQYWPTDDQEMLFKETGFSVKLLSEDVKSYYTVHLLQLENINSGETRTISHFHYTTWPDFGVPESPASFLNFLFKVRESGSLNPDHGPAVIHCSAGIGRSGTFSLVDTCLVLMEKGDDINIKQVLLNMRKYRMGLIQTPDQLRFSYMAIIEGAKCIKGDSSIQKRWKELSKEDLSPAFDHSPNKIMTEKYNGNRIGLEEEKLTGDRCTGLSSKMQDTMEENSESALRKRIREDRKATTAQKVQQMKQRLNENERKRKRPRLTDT", "assay": "cell-based or functional assay"}
{"binder": "B1", "values": [{"measurement": "activation of recombinant TC45 in DiFMUP phosphatase assay by 10 μM α1-cyt peptide", "value": 2.4, "unit": "fold"}]}
